# From IntAct's records for PubMed 28533415
# B1: Nucleus-vacuole junction protein 1 (Saccharomyces cerevisiae), P38881 (parent)
# chain: MTRPPLVRGIFSLGLSVAVLKGVEKTVRKHLERQGWIEPQKVDYELIFTIDRLKNLVDNKREALTAEQPDAGELSWRKVFNFISRQSSELDTRIYVLILLLSFLLPIAWTVLDGDRETTLEDKDNDCNVDLIENERRLKHYNDGERAVLQFGKNRSEPIILSYKDMNVLEGEHEFTSKEEHSNSHLTSKSENALNQVGSEDLLGCHLEKQLEEDKNEPNGEADGEDDNNREKDCSSSSEVESQSKCRKESTAEPDSLSRDTRTTSSLKSSTSFPISFKGSIDLKSLNQPSSLLHIQVSPTKSSNLDAQVNTEQAYSQPFRY
# partner: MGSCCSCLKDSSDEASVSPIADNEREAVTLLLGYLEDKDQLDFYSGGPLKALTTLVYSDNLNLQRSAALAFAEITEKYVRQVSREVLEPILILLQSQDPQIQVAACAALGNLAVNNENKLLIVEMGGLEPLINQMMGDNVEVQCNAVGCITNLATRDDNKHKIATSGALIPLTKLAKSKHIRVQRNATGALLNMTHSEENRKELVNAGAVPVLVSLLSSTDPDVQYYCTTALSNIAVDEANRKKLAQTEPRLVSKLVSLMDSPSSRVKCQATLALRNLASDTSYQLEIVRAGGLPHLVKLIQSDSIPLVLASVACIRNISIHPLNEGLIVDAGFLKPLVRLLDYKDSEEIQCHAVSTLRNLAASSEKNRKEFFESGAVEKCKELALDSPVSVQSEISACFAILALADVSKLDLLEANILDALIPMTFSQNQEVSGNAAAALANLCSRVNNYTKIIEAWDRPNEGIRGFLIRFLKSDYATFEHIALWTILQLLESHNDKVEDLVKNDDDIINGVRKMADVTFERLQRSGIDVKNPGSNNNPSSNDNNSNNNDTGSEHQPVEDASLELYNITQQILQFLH
# Variants of: B1
# Settings: with vac8_yeast VAC8, P39968
row,Variant,effect of a mutation on the interaction
1,MTRPPLVRGIFSLGLSVAVLKGVEKTVRKHLERQGWIEPQKVDYELIFTIDRLKNLVDNKREALTAEQPDAGELSWRKVFNFISRQSSELDTRIYVLILLLSFLLPIAWTVLDGDRETTLEDKDNDCNVDLIENERRLKHYNDGERAVLQFGKNRSEPIILSYKDMNVLEGEHEFTSKEEHSNSHLTSKSENALNQVGSEDLLGCHLEKQLEEDKNEPNGEADGEDDNNREKDCSSSSEVESQSKCRKESTAEPDSLSRDTRTTSSLKSSTSFPISFKGSIDLKSLNQPSSLLHIQVSPTESSNLDAQVNTEQAYSQPFRY [K301E],decreasing interaction strength
2,MTRPPLVRGIFSLGLSVAVLKGVEKTVRKHLERQGWIEPQKVDYELIFTIDRLKNLVDNKREALTAEQPDAGELSWRKVFNFISRQSSELDTRIYVLILLLSFLLPIAWTVLDGDRETTLEDKDNDCNVDLIENERRLKHYNDGERAVLQFGKNRSEPIILSYKDMNVLEGEHEFTSKEEHSNSHLTSKSENALNQVGSEDLLGCHLEKQLEEDKNEPNGEADGEDDNNREKDCSSSSEVESQSKCRKESTAEPDSLSRDTRTTSSLKSSTSFPISFKGSIDLKSLNQPSSLLHIQVSSTKSSNLDAQVNTEQAYSQPFRY [P299S],with no effect
3,MTRPPLVRGIFSLGLSVAVLKGVEKTVRKHLERQGWIEPQKVDYELIFTIDRLKNLVDNKREALTAEQPDAGELSWRKVFNFISRQSSELDTRIYVLILLLSFLLPIAWTVLDGDRETTLEDKDNDCNVDLIENERRLKHYNDGERAVLQFGKNRSEPIILSYKDMNVLEGEHEFTSKEEHSNSHLTSKSENALNQVGSEDLLGCHLEKQLEEDKNEPNGEADGEDDNNREKDCSSSSEVESQSKCRKESTAEPDSLSRDTRTTSSLKSSTSFPISFKGSIDLKSLNQPSSLLHRQVSPTKSSNLDRQVNTEQAYSQPERY [I295R;A307R;F319E],disrupting interaction strength
4,MTRPPLVRGIFSLGLSVAVLKGVEKTVRKHLERQGWIEPQKVDYELIFTIDRLKNLVDNKREALTAEQPDAGELSWRKVFNFISRQSSELDTRIYVLILLLSFLLPIAWTVLDGDRETTLEDKDNDCNVDLIENERRLKHYNDGERAVLQFGKNRSEPIILSYKDMNVLEGEHEFTSKEEHSNSHLTSKSENALNQVGSEDLLGCHLEKQLEEDKNEPNGEADGEDDNNREKDCSSSSEVESQSKCRKESTAEPDSLSRDTRTTSSLKSSTSFPISFKGSIDLKSLNQPSSLLHIQVSPTKSSNLDAQVNTEQAYSQPERY [F319E],disrupting interaction strength
5,MTRPPLVRGIFSLGLSVAVLKGVEKTVRKHLERQGWIEPQKVDYELIFTIDRLKNLVDNKREALTAEQPDAGELSWRKVFNFISRQSSELDTRIYVLILLLSFLLPIAWTVLDGDRETTLEDKDNDCNVDLIENERRLKHYNDGERAVLQFGKNRSEPIILSYKDMNVLEGEHEFTSKEEHSNSHLTSKSENALNQVGSEDLLGCHLEKQLEEDKNEPNGEADGEDDNNREKDCSSSSEVESQSKCRKESTAEPDSLSRDTRTTSSLKSSTSFPISFKGSIDLKSLNQPSSLLHRQVSPTKSSNLDAQVNTEQAYSQPFRY [I295R],decreasing interaction strength
6,MTRPPLVRGIFSLGLSVAVLKGVEKTVRKHLERQGWIEPQKVDYELIFTIDRLKNLVDNKREALTAEQPDAGELSWRKVFNFISRQSSELDTRIYVLILLLSFLLPIAWTVLDGDRETTLEDKDNDCNVDLIENERRLKHYNDGERAVLQFGKNRSEPIILSYKDMNVLEGEHEFTSKEEHSNSHLTSKSENALNQVGSEDLLGCHLEKQLEEDKNEPNGEADGEDDNNREKDCSSSSEVESQSKCRKESTAEPDSLSRDTRTTSSLKSSTSFPISFKGSIDLKSLNQPSSLLHIQVSPTKSSNLDRQVNTEQAYSQPFRY [A307R],decreasing interaction strength
7,MTRPPLVRGIFSLGLSVAVLKGVEKTVRKHLERQGWIEPQKVDYELIFTIDRLKNLVDNKREALTAEQPDAGELSWRKVFNFISRQSSELDTRIYVLILLLSFLLPIAWTVLDGDRETTLEDKDNDCNVDLIENERRLKHYNDGERAVLQFGKNRSEPIILSYKDMNVLEGEHEFTSKEEHSNSHLTSKSENALNQVGSEDLLGCHLEKQLEEDKNEPNGEADGEDDNNREKDCSSSSEVESQSKCRKESTAEPDSLSRDTRTTSSLKSSTSFPISFKGSIDLKSLNQPSSLLHIQVSPTKSANLDAQVNTEQAYSQPFRY [S303A],with no effect
